From article PMC8837617 come the findings set out here.

This assay addresses MAPK ERK2 (human), P28482. Kind of assay: FP. The note with it: modification not given.

Chain of MAPK ERK2 (human), P28482 (P28482 whole entry): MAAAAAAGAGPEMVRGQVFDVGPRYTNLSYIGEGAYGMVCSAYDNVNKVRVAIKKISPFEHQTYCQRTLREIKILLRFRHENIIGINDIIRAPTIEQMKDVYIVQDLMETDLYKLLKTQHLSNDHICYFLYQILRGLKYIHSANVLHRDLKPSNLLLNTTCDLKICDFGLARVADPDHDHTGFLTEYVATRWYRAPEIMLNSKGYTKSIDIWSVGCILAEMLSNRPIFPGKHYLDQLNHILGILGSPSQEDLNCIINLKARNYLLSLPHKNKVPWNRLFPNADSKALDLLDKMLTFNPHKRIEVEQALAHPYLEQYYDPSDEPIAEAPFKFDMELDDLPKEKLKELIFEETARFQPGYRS

B1: MKK4 (peptide)
chain: QGKRKALKLNFANP
Turning to B1, the Ki amounted to 431 µM.

B2: MKK6 (peptide)
chain: SKGKKRNPGLKIPK
B2 came in with a Ki of 65 µM. This Ki is about 6.6-fold lower than that of the molecule before.

What is called Ki is a dissociation constant, usually derived from enzyme kinetics or from competition with a known ligand. The low end stands for higher affinity, the high end for lower affinity.
